From the Human Domainome abundance scans (Beltran et al. 2025)
± gives the uncertainty stated by the source.

B1: Storkhead-box protein 2, residues 64 to 141; numbered along this chain, Q9P2F5 (parent)
chain: SPISQSQFIPLGEILCLAISAMNSARKPVTQEALMEHLTTCFPGVPTPSQEILRHTLNTLVRERKIYPTPDGYFIVTP

Variants of: B1
Assay: abundance fitness (aPCA) (normalised: wild type 0, dead -1); higher = more abundant; growth selection in yeast, the domain comes from the species named
Details: Homo sapiens

Variant	abundance fitness
L53V	-0.003 ± 0.047
L53W	-0.141 ± 0.024
L53R	-0.913 ± 0.092
L53P	-1.11 ± 0.19
L53S	-0.586 ± 0.053
L53Y	-0.108 ± 0.079
L53I	-0.007 ± 0.11
L53Q	-0.491 ± 0.11
L53M	0.019 ± 0.047
L53H	-0.756 ± 0.18
L53E	-0.929 ± 0.15
L53D	-0.747 ± 0.4
L53F	-0.113 ± 0.12
L53C	-0.113 ± 0.14
L53G	-0.856 ± 0.068
L53A	-0.124 ± 0.058
L53K	-0.943 ± 0.28
L53T	0.026 ± 0.066
N58Q	-0.03 ± 0.037
N58F	-0.172 ± 0.068
N58I	-0.041 ± 0.076
N58A	0.033 ± 0.04
N58C	-0.052 ± 0.072
N58H	0.017 ± 0.13

Variant	abundance fitness
N58K	-0.071 ± 0.059
N58P	-0.678 ± 0.074
N58T	-0.018 ± 0.056
N58R	-0.016 ± 0.036
N58S	-0.03 ± 0.048
N58D	-0.005 ± 0.078
N58E	0.001 ± 0.065
N58G	0 ± 0.031
N58L	-0.025 ± 0.041
E51N	-0.301 ± 0.17
E51R	-0.231 ± 0.049
E51F	-0.207 ± 0.1
E51T	-0.085 ± 0.088
E51K	0.003 ± 0.098
E51A	-0.085 ± 0.048
E51M	-0.203 ± 0.099
E51C	-0.104 ± 0.077
E51Y	-0.161 ± 0.1
E51H	0.027 ± 0.18
E51W	-0.145 ± 0.062
E51V	-0.145 ± 0.051
E51S	-0.039 ± 0.056
E51P	0.009 ± 0.052
E51Q	-0.099 ± 0.071

Variant	abundance fitness
E51D	0.028 ± 0.11
E51G	-0.1 ± 0.044
Q50S	-0.034 ± 0.069
Q50N	-0.08 ± 0.16
Q50A	-0.011 ± 0.053
Q50R	-0.036 ± 0.043
Q50C	-0.076 ± 0.1
Q50V	-0.131 ± 0.059
Q50T	-0.08 ± 0.086
Q50M	0.036 ± 0.083
Q50Y	0.174 ± 0.19
Q50K	-0.014 ± 0.097
Q50W	-0.082 ± 0.067
Q50P	-0.055 ± 0.081
Q50D	0.118 ± 0.15
Q50H	-0.022 ± 0.1
Q50I	0.047 ± 0.12
Q50G	0.053 ± 0.044
Q50F	0.013 ± 0.16
R54P	-0.401 ± 0.11
R54Q	0.066 ± 0.082
R54E	0.013 ± 0.15
R54Y	-0.117 ± 0.33
R54F	-0.082 ± 0.24

Variant	abundance fitness
R54N	0.012 ± 0.25
R54M	0 ± 0.081
R54W	-0.285 ± 0.091
R54H	-0.367 ± 0.14
R54I	-0.037 ± 0.19
R54K	-0.027 ± 0.3
R54V	-0.012 ± 0.1
R54C	-0.193 ± 0.17
R54A	0.015 ± 0.1
R54L	-0.011 ± 0.039
R54S	0.015 ± 0.06
R54G	0.057 ± 0.1
R54D	-0.365 ± 0.2
I52E	-0.042 ± 0.057
I52W	-0.019 ± 0.056
I52M	0.056 ± 0.064
I52Y	0.171 ± 0.27
I52H	0.011 ± 0.092
I52F	0.011 ± 0.088
I52S	-0.134 ± 0.054
I52V	0.035 ± 0.044
I52L	-0.05 ± 0.052
I52P	-0.654 ± 0.09
I52R	-0.086 ± 0.045

Variant	abundance fitness
I52K	-0.029 ± 0.072
I52N	-0.46 ± 0.17
I52C	-0.038 ± 0.094
I52T	0.025 ± 0.069
I52D	-0.043 ± 0.11
I52G	-0.083 ± 0.036
I52A	-0.085 ± 0.045
H55E	0.028 ± 0.052
H55Y	-0.181 ± 0.11
H55D	0.07 ± 0.074
H55T	0.065 ± 0.051
H55S	-0.005 ± 0.04
H55R	-0.055 ± 0.045
H55W	-0.087 ± 0.091
H55G	0.06 ± 0.035
H55V	-0.035 ± 0.039
H55I	-0.103 ± 0.12
H55L	-0.088 ± 0.039
H55C	-0.033 ± 0.058
H55N	0.109 ± 0.083
H55A	0.007 ± 0.045
H55F	-0.057 ± 0.08
H55P	-0.223 ± 0.051
H55K	0.007 ± 0.07

Variant	abundance fitness
T56P	-1.03 ± 0.12
T56K	-0.052 ± 0.1
T56A	-0.046 ± 0.05
T56L	0.054 ± 0.043
T56G	-0.051 ± 0.043
T56W	-0.022 ± 0.058
T56S	-0.005 ± 0.045
T56M	0.058 ± 0.085
T56F	-0.036 ± 0.034
T56D	-0.069 ± 0.1
T56Y	-0.26 ± 0.23
T56V	-0.042 ± 0.044
T56C	-0.056 ± 0.074
T56E	-0.087 ± 0.087
T56Q	-0.045 ± 0.066
S49V	-0.575 ± 0.043
S49P	-0.27 ± 0.045
S49A	-0.109 ± 0.035
S49M	-0.68 ± 0.1
S49E	-0.24 ± 0.063
S49G	-0.068 ± 0.032
S49R	-0.21 ± 0.036
S49Q	-0.265 ± 0.082
S49H	-0.225 ± 0.077

Variant	abundance fitness
S49C	-0.068 ± 0.053
S49I	-0.835 ± 0.12
S49F	-0.887 ± 0.1
S49K	-0.139 ± 0.055
S49N	-0.173 ± 0.11
S49L	-0.684 ± 0.055
S49T	-0.16 ± 0.055
L57Q	-0.924 ± 0.26
L57F	-0.306 ± 0.18
L57C	-0.202 ± 0.083
L57G	-1.01 ± 0.082
L57M	-0.066 ± 0.069
L57I	-0.04 ± 0.11
L57R	-1.11 ± 0.12
L57P	-1.22 ± 0.14
L57E	-0.784 ± 0.26
L57S	-0.799 ± 0.068
L57A	-0.576 ± 0.058
L57T	-0.193 ± 0.058
L57W	-0.269 ± 0.076
L57H	-1.1 ± 0.21
L57K	-0.953 ± 0.28
L57D	-0.793 ± 0.24
